Experimental findings from patent publication US20200239888 are described below.

Read-outs that look alike come from different tables or passages of the source.

For series [1], the target named is NanoLuc luciferase control (NLUC-HA) (UniProt Q9GV45). The conditions noted are these: full PS, nanoBRET, control protein.
In series [2] the target is FUS(375-526)[P525L][R/S in 375-422]-NLUC-HA P525L; all Arg to Ser in 375-422 (UniProt P35637). To be noted: full PS, nanoBRET.
For series [3], the target named is FUS(375-526)[P525L][R/S in 454-526]-NLUC-HA P525L; all Arg to Ser in 454-526 (UniProt P35637). The conditions noted are these: full PS, nanoBRET.
For series [4], the target named is FUS(1-526)[P525L][R/S in 375-422 and 454-526]-NLUC-FLAG P525L; all Arg to Ser in 375-422 and 454-526 (UniProt P35637). To be noted: nanoBRET.
For series [5], the system named is HA-NES-β23-NLUC (artificial). The conditions noted are these: full PS, nanoBRET, control fusion.
The target in series [6] is HA-NES-β23-NLUC-FUS(375-526)[P525L][R/S in 375-422 and 454-526] P525L; all Arg to Ser in 375-422 and 454-526 (UniProt P35637). To be noted: full PS, nanoBRET.
Setting [7] is: 2'-F at 1-5 and 16-20, DNA at 6-15, 5mC at C8, C9, C11.
The mark [8] stands for this setting: 2'-MOE at 1-5 and 16-20, DNA at 6-15, all C 5mC.
Where [9] appears, read: cEt at 1-5 and 16-20, DNA at 6-15, all C 5mC.

Regarding “CUGCUAGCCTCTGGAUUUGA [766637 (2'-F 5-10-5 gapmer)]”, the Kd is more than 1000 nM in series [1] (setting [7]); 1.8 nM in series [2] (setting [7]); 38.4 nM in series [3] (setting [7]); 0.3 nM in series [4] (2'-F at 1-5 and 16-20, DNA at 6-15, full PS, 5mC at C8, C9, C11); 345 nM in series [5] (setting [7]); 200 nM in series [6] (setting [7]).
“CUGCUAGCCUCUGGAUUUGA [JB39 (RNA, phosphodiester)]” had a Kd in series [4] of 248 nM.
Turning to “CTGCTAGCCTCTGGATTTGA [766633 (2'-MOE 5-10-5 gapmer)]”, the equilibrium dissociation constant (Kd) in series [1] (2'-MOE at 1-5 and 16-20, DNA at 6-15, all C 5mC, 100 mM KOAc, 20 mM Tris pH 8.0, 1 mM EDTA, 0.01% NP-40, RT) is more than 1000 nM; in series [2] (setting [8]) it was 12.4 nM; in series [3] (setting [8]) it was 282 nM; in series [4] (2'-MOE at 1-5 and 16-20, DNA at 6-15, full PS, all C 5mC) it was 1.6 nM; in series [5] (setting [8]), more than 1000 nM; in series [6] (setting [8]), more than 1000 nM.
As to “CTGCTAGCCTCTGGATTTGA [766635 (cEt 5-10-5 gapmer)]”, the equilibrium dissociation constant (Kd) in series [1] (setting [9]) is more than 1000 nM; in series [2] (setting [9]) it was 14.3 nM; in series [3] (setting [9]) it was 290 nM; in series [4] (cEt at 1-5 and 16-20, DNA at 6-15, full PS, all C 5mC), 3.7 nM; in series [5] (setting [9]), 950 nM; in series [6] (setting [9]) it was more than 1000 nM.
